From patent publication US20190016816A1 (APTEVO RESEARCH AND DEVELOPMENT, published 2019) come the findings set out here.

The target of one assay is T1, FcγRIIIb (CD16b) (UniProt O75015 17-200, limits assumed).
T1 construct: whole, on cells
In words: flow cytometry, CHO cells stably expressing CD16b, fluorescent anti-human IgG secondary, MFI (mean). The source says: ALG.APV-210 contains mutations introduced to prevent interaction with Fcγ receptors (FcγR) that could lead to FcγR-mediated T-cell activation or ADCC, ADCP, CDC etc. Binding of ALG.APV-210 was therefore tested on CHO cell transfectants stably expressing the following FcγR: FcγRI (CD64), FcγRIIa (CD32a His131), FcγRIIb (CD32b), FcγRIIIa (CD16a Val158 and CD16a Phe158), and FcγRIIIb (CD16b). Untransfected CHO cells were used as negative control. A control human IgG1 molecule was used as a positive control. Different concentrations of ALG.APV-210 or control IgG1 were incubated with the FcγR-expressing cell lines, washed, and labeled with a secondary anti-human IgG reagent. Binding of ALG.APV-210 and the control IgG1 was detected by flow cytometry.
(A flow cytometer gives signals particle by particle.)

For another assay, the target named is T2, human 5T4 on cells (human, UniProt Q13641 32-420).
T2 construct: also called TPBG; hu5T4
T2 sequence: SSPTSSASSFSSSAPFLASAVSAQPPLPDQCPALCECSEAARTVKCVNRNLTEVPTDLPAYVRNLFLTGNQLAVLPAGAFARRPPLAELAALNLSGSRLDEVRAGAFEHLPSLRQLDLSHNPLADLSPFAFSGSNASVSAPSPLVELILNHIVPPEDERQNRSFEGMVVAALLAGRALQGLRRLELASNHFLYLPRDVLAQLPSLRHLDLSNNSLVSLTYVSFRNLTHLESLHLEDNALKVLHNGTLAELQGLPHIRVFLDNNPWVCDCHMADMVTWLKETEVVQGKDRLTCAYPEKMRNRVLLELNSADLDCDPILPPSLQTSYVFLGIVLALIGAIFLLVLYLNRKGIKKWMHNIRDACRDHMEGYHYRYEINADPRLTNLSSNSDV
Put plainly: flow cytometry, CT26-hu5T4^high cells, streptavidin-PE, normalized MFI of 2 pooled experiments. The procedure:
Prior to the FACS staining, all cell lines were characterized for their 5T4 expression levels using a receptor density kit (Quantum Simply Cellular, anti-human IgG, Bangs Laboratories, Inc). Adherent cell lines were cultured according to their supplier's instructions and were harvested from their cell culture flasks using Trypsin/EDTA, counted in R10 medium in a Burker chamber, and diluted in FACS buffer (PBS+0.5% BSA, 0.05% NaN₃) to a concentration of 4×10⁶ cells/mL. 50 μL (0.20×10⁶) of cell solution was added to a 96-well FACS staining plate (Falcon #351190). Cells were incubated for 20 min in 4° C. with 50 μL of the biotinylated ALG.APV-210 (2× final concentration). The antibodies were added in a serial dilution starting at 20 μg/mL titrating down in a 12 step ½ dilution down to 0.010 μg/mL. Following 2× washing with FACS buffer, cells were incubated for 30 min in 4° C. with 100 μL of a secondary antibody (streptavidin-PE, BD #554061, diluted 1/500). […] Cells were analysed for ALG.APV-210 binding using flow cytometry (FACSVerse) by gating on single cells. MFI values (secondary antibody only subtracted) from 1 out of 2 independent experiments, as well as normalized data and EC₅₀-values of pooled data from 2 experiments were determined and plotted using GraphPad Prism 7, non-linear regression log (agonist) vs. normalized response—variable slope.

The target in assay [1] is T3, human CD137 on cells (human, UniProt Q07011 24-255).
T3 construct: also called 4-1BB; TNFRSF9 (CHO-K1/human CD137 cells)
Put plainly: flow cytometry, CD8 T cells gated from CD3-stimulated human PBMC, biotinylated antibody + streptavidin-APC, exp 1, n=3 donors. The procedure:
(§1) Following 48 h of incubation with or without CD3, human and cynomolgus PBMC were harvested, pooled, recounted and diluted in FACS buffer (PBS+0.5% BSA, 0.05% NaN₃) to a concentration of 5×10⁶ cells/mL. 50 μL (0.25×10⁶ cells) of cell solution was added to a 96-well FACS staining plate (Falcon #351190). Following 10 min of Fc-blocking in RT using Beriglobin (hIgG, 200 μg/mL), cells were washed in FACS buffer and then incubated for 1 h in 4° C. with 100 μL of the biotinylated ALG.APV-210 or negative control. […] Cells were analysed for ALG.APV-210 binding using flow cytometry by gating on viable, single cells expressing CD3 and CD8. MFI values (FMO subtracted) from 2 independent experiments as well as normalized pooled data from 2 experiments and EC₅₀-values were determined and plotted using GraphPad Prism 7, non-linear regression log (agonist) vs. normalized response—variable slope, n=6 donors/group.
In ELISA tests, the binding of biotinylated ALG.APV-210 to CD137 was similar to that of the non-biotinylated ALG.APV-210 (0.6 nM vs. 0.7 nM). The binding (EC₅₀) of the biotinylated ALG.APV-210 to its immunomodulatory target CD137 when expressed on activated primary human and cynomolgus CD8 T cells from CD3 stimulated PBMC was assessed and compared between the two species as well as to unstimulated cells. […]

The target of assay [2] is T3, human CD137 on cells. In words: flow cytometry, percentage of CD8 T cells (gated from CD3-stimulated human PBMC) bound by the biotinylated antibody, exp 1, n=3 donors. The procedure: as §1, with “control. The antibodies were added in a serial dilution starting either at 5 μg/mL titrating down in a 12 step ⅓ dilution down to […] (exp 1) or 1 μg/mL titrating down in a 12 step ½ dilution down to 0.0005 μg/mL (exp 2).” for “control.”

As usually defined, the EC50 is the concentration that produces a half-maximal response. Read a low EC50 as an effect from little substance. The EC50 (read off the curve) is the concentration giving half of the maximal effect.

T3 sequence (Q07011 24-255 limits assumed): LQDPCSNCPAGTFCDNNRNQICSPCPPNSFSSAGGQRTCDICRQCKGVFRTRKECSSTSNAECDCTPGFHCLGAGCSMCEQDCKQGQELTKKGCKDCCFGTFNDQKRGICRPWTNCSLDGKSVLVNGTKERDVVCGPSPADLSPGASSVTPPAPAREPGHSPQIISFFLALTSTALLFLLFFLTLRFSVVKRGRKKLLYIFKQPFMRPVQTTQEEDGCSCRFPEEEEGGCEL
T1 sequence (O75015 17-200 limits assumed): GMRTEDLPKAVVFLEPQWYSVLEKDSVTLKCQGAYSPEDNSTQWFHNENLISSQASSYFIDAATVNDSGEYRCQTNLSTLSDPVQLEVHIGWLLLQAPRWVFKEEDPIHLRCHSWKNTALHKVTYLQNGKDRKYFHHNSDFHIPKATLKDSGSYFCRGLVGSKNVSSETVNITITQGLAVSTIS

B1: ALG.APV-210 (bispecific antibody)
chain: EVQLLESGGGLVQPGGSLRLSCAASGFTFSHGSMYWVRQAPGKGLEWVSSISSGSGSTYYADSVKGRFTISHDNSKNTLYLQMNSLRAEDTAVYYCARSSYYGSYYSIDYWGQGTLVTVSSGGGGSGGGGSGGGGSGGGGSDIQMTQSPSSLSASVGDRVTITCRASQSISSYLNWYQQKPGKAPKLLIYAASSLQSGVPSRFSGSGSGTDFTLTISSLQPEDFATYYCQQYYDNLPTFGQGTKLEIKEPKSSDKTHTCPPCPAPEAAGAPSVFLFPPKPKDTLMISRTPEVTCVVVDVSHEDPEVKFNWYVDGVEVHNAKTKPREEQYNSTYRVVSVLTVLHQDWLNGKEYKCAVSNKALPAPIEKTISKAKGQPREPQVYTLPPSRDELTKNQVSLTCLVKGFYPSDIAVEWESNGQPENNYKTTPPVLDSDGSFFLYSKLTVDKSRWQQGNVFSCSVMHEALHNHYTQKSLSLSPGSGGGGSGGGGSGGGGSPSEVQLLESGGGLVQPGGSLRLSCAASGFTFSSYAMSWVRQAPGKCLEWVSAISGSGGSTYYADSVKGRFTISRDNSKNTLYLQMNSLRAEDTAVYYCARYYGGYYSAWMDYWGQGTLVTVSSGGGGSGGGGSGGGGSGGGGSDIQMTQSPSSLSASVGDRVTITCRASQSISSFLNWYQQKPGKAPKLLIYAASSLQSGVPSRFSGSGSGTDFTLTISSLQPEDSATYYCQQTYGYLHTFGCGTKLEIKR
notes: Optimized ADAPTIR scFv-Fc-scFv homodimer with stabilizing disulfide in the 1210 scFv; also called 5T4-CD137 bispecific antibody
With B1, the binding result with FcγRIIIb (CD16b) is reported as “no binding (tested: 1000 nM)”.

B2: biotinylated ALG.APV-210 (bispecific antibody)
chain: EVQLLESGGGLVQPGGSLRLSCAASGFTFSHGSMYWVRQAPGKGLEWVSSISSGSGSTYYADSVKGRFTISHDNSKNTLYLQMNSLRAEDTAVYYCARSSYYGSYYSIDYWGQGTLVTVSSGGGGSGGGGSGGGGSGGGGSDIQMTQSPSSLSASVGDRVTITCRASQSISSYLNWYQQKPGKAPKLLIYAASSLQSGVPSRFSGSGSGTDFTLTISSLQPEDFATYYCQQYYDNLPTFGQGTKLEIKEPKSSDKTHTCPPCPAPEAAGAPSVFLFPPKPKDTLMISRTPEVTCVVVDVSHEDPEVKFNWYVDGVEVHNAKTKPREEQYNSTYRVVSVLTVLHQDWLNGKEYKCAVSNKALPAPIEKTISKAKGQPREPQVYTLPPSRDELTKNQVSLTCLVKGFYPSDIAVEWESNGQPENNYKTTPPVLDSDGSFFLYSKLTVDKSRWQQGNVFSCSVMHEALHNHYTQKSLSLSPGSGGGGSGGGGSGGGGSPSEVQLLESGGGLVQPGGSLRLSCAASGFTFSSYAMSWVRQAPGKCLEWVSAISGSGGSTYYADSVKGRFTISRDNSKNTLYLQMNSLRAEDTAVYYCARYYGGYYSAWMDYWGQGTLVTVSSGGGGSGGGGSGGGGSGGGGSDIQMTQSPSSLSASVGDRVTITCRASQSISSFLNWYQQKPGKAPKLLIYAASSLQSGVPSRFSGSGSGTDFTLTISSLQPEDSATYYCQQTYGYLHTFGCGTKLEIKR
notes: also called ALG.APV-210 (biotinylated for FACS detection)
On to B2, for which the response with human 5T4 on cells was half-maximal at 20 nM (EC50). Besides, the results for the half-maximal effective concentration (EC50 (read off the curve)) with human CD137 on cells [1] and in the assay with human CD137 on cells [2] were ~0.3 nM and ~0.02 nM, respectively.
